Assay results as given in the MegaScale stability set (Tsuboyama et al. 2023).

B1: r11_951_TrROS_Hall (parent)
chain: KKKYVIKVYFEDTGKEVEIEAESKEEALEAAKRLAEELGLKIKKVEIYP

Variants of: B1
Experiment: folding stability dG (cDNA display proteolysis); higher = more stable
Details: PBS, room temperature

Going from KKKYVIKVYFEDTGKEVEIEAESKCEALEAAKRLAEELGLKIKKVEIYP [E25C] to KKKYVIKVYFEDTGKEVEIEAESKAEALEAAKRLAEELGLKIKKVEIYP [E25A], the “folding stability dG” value rises from 4.28 kcal/mol to 4.4 kcal/mol.

Going from KKKYVIKVYFEDTGKEVEIEAESKGEALEAAKRLAEELGLKIKKVEIYP [E25G] to KKKYVIKVYFEDTGKEVEIEAESKPEALEAAKRLAEELGLKIKKVEIYP [E25P], the “folding stability dG” value rises from 4.15 kcal/mol to 4.16 kcal/mol.

Going from KKKYVIKVYFEDTGKEVEIEAESKSEALEAAKRLAEELGLKIKKVEIYP [E25S] to KKKYVIKVYFEDTGKEVEIEAESKTEALEAAKRLAEELGLKIKKVEIYP [E25T], the “folding stability dG” value rises from 4.12 kcal/mol to 4.28 kcal/mol.

Going from KKKYVIKVYFEDTGKEVEIEAESKIEALEAAKRLAEELGLKIKKVEIYP [E25I] to KKKYVIKVYFEDTGKEVEIEAESKLEALEAAKRLAEELGLKIKKVEIYP [E25L], the “folding stability dG” value falls from 4.27 kcal/mol to 4.18 kcal/mol.

First: KKKYVIKVYFEDTGKEVEIEAESKHEALEAAKRLAEELGLKIKKVEIYP [E25H]
Second: KKKYVIKVYFEDTGKEVEIEAESKFEALEAAKRLAEELGLKIKKVEIYP [E25F]
The “folding stability dG” value of the first is higher: 4.39 kcal/mol for the first, 4.34 kcal/mol for the second.

Compared with KKKYVIKVYFEDTGKEVEIEAESKWEALEAAKRLAEELGLKIKKVEIYP [E25W], KKKYVIKVYFEDTGKEVEIEAESKMEALEAAKRLAEELGLKIKKVEIYP [E25M] is higher in “folding stability dG” value: 4.25 kcal/mol for the first, 4.32 kcal/mol for the second.

First: KKKYVIKVYFEDTGKEVEIEAESKQEALEAAKRLAEELGLKIKKVEIYP [E25Q]
Second: KKKYVIKVYFEDTGKEVEIEAESKYEALEAAKRLAEELGLKIKKVEIYP [E25Y]
The “folding stability dG” value of the first is lower: 4.18 kcal/mol for the first, 4.33 kcal/mol for the second.

First: KKKYVIKVYFEDTGKEVEIEAESKKEALEAAKRLAEELGLKIKKVEIYP [E25K]
Second: KKKYVIKVYFEDTGKEVEIEAESKEEELEAAKRLAEELGLKIKKVEIYP [A27E]
The “folding stability dG” value of the first is higher: 4.22 kcal/mol for the first, 1.78 kcal/mol for the second.

Going from KKKYVIKVYFEDTGKEVEIEAESKEEDLEAAKRLAEELGLKIKKVEIYP [A27D] to KKKYVIKVYFEDTGKEVEIEAESKEEYLEAAKRLAEELGLKIKKVEIYP [A27Y], the “folding stability dG” value rises from 1.49 kcal/mol to 3.79 kcal/mol.

Compared with KKKYVIKVYFEDTGKEVEIEAESKEECLEAAKRLAEELGLKIKKVEIYP [A27C], KKKYVIKVYFEDTGKEVEIEAESKEELLEAAKRLAEELGLKIKKVEIYP [A27L] is higher in “folding stability dG” value: 4.23 kcal/mol for the first, 4.34 kcal/mol for the second.

Compared with KKKYVIKVYFEDTGKEVEIEAESKEETLEAAKRLAEELGLKIKKVEIYP [A27T], KKKYVIKVYFEDTGKEVEIEAESKEENLEAAKRLAEELGLKIKKVEIYP [A27N] is lower in “folding stability dG” value: 3.58 kcal/mol for the first, 2.01 kcal/mol for the second.

First: KKKYVIKVYFEDTGKEVEIEAESKEEVLEAAKRLAEELGLKIKKVEIYP [A27V]
Second: KKKYVIKVYFEDTGKEVEIEAESKEEKLEAAKRLAEELGLKIKKVEIYP [A27K]
The “folding stability dG” value of the first is higher: 4.38 kcal/mol for the first, 1.74 kcal/mol for the second.

Going from KKKYVIKVYFEDTGKEVEIEAESKEEGLEAAKRLAEELGLKIKKVEIYP [A27G] to KKKYVIKVYFEDTGKEVEIEAESKEEFLEAAKRLAEELGLKIKKVEIYP [A27F], the “folding stability dG” value falls from 4.68 kcal/mol to 3.8 kcal/mol.

Going from KKKYVIKVYFEDTGKEVEIEAESKEEILEAAKRLAEELGLKIKKVEIYP [A27I] to KKKYVIKVYFEDTGKEVEIEAESKEEPLEAAKRLAEELGLKIKKVEIYP [A27P], the “folding stability dG” value falls from 4.09 kcal/mol to 2.74 kcal/mol.

First: KKKYVIKVYFEDTGKEVEIEAESKEEMLEAAKRLAEELGLKIKKVEIYP [A27M]
Second: KKKYVIKVYFEDTGKEVEIEAESKEERLEAAKRLAEELGLKIKKVEIYP [A27R]
The “folding stability dG” value of the first is higher: 3.71 kcal/mol for the first, 1.78 kcal/mol for the second.

First: KKKYVIKVYFEDTGKEVEIEAESKEEHLEAAKRLAEELGLKIKKVEIYP [A27H]
Second: KKKYVIKVYFEDTGKEVEIEAESKEEQLEAAKRLAEELGLKIKKVEIYP [A27Q]
The “folding stability dG” value of the first is higher: 2.78 kcal/mol for the first, 2.23 kcal/mol for the second.

Compared with KKKYVIKVYFEDTGKEVEIEAESKEEWLEAAKRLAEELGLKIKKVEIYP [A27W], KKKYVIKVYFEDTGKEVEIEAESKEESLEAAKRLAEELGLKIKKVEIYP [A27S] is higher in “folding stability dG” value: 3.93 kcal/mol for the first, 4.03 kcal/mol for the second.

First: KKKYVIKVYFEDTGKEVEIEAESVEEALEAAKRLAEELGLKIKKVEIYP [K24V]
Second: KKKYVIKVYFEDTGKEVEIEAESYEEALEAAKRLAEELGLKIKKVEIYP [K24Y]
The “folding stability dG” value of the first is higher: 4.6 kcal/mol for the first, 4.5 kcal/mol for the second.

First: KKKYVIKVYFEDTGKEVEIEAESDEEALEAAKRLAEELGLKIKKVEIYP [K24D]
Second: KKKYVIKVYFEDTGKEVEIEAESWEEALEAAKRLAEELGLKIKKVEIYP [K24W]
The “folding stability dG” value of the first is lower: 4.37 kcal/mol for the first, 4.51 kcal/mol for the second.

Compared with KKKYVIKVYFEDTGKEVEIEAESIEEALEAAKRLAEELGLKIKKVEIYP [K24I], KKKYVIKVYFEDTGKEVEIEAESHEEALEAAKRLAEELGLKIKKVEIYP [K24H] is lower in “folding stability dG” value: 4.52 kcal/mol for the first, 4.45 kcal/mol for the second.

Going from KKKYVIKVYFEDTGKEVEIEAESPEEALEAAKRLAEELGLKIKKVEIYP [K24P] to KKKYVIKVYFEDTGKEVEIEAESMEEALEAAKRLAEELGLKIKKVEIYP [K24M], the “folding stability dG” value rises from 4.19 kcal/mol to 4.46 kcal/mol.

Compared with KKKYVIKVYFEDTGKEVEIEAESREEALEAAKRLAEELGLKIKKVEIYP [K24R], KKKYVIKVYFEDTGKEVEIEAESSEEALEAAKRLAEELGLKIKKVEIYP [K24S] is lower in “folding stability dG” value: 4.3 kcal/mol for the first, 4.29 kcal/mol for the second.

Compared with KKKYVIKVYFEDTGKEVEIEAESEEEALEAAKRLAEELGLKIKKVEIYP [K24E], KKKYVIKVYFEDTGKEVEIEAESNEEALEAAKRLAEELGLKIKKVEIYP [K24N] is lower in “folding stability dG” value: 4.54 kcal/mol for the first, 4.46 kcal/mol for the second.

First: KKKYVIKVYFEDTGKEVEIEAESQEEALEAAKRLAEELGLKIKKVEIYP [K24Q]
Second: KKKYVIKVYFEDTGKEVEIEAESAEEALEAAKRLAEELGLKIKKVEIYP [K24A]
The “folding stability dG” value of the first is lower: 4.38 kcal/mol for the first, 4.55 kcal/mol for the second.

Going from KKKYVIKVYFEDTGKEVEIEAESFEEALEAAKRLAEELGLKIKKVEIYP [K24F] to KKKYVIKVYFEDTGKEVEIEAESCEEALEAAKRLAEELGLKIKKVEIYP [K24C], the “folding stability dG” value rises from 4.32 kcal/mol to 4.53 kcal/mol.

First: KKKYVIKVYFEDTGKEVEIEAESGEEALEAAKRLAEELGLKIKKVEIYP [K24G]
Second: KKKYVIKVYFEDTGKEVEIEAESTEEALEAAKRLAEELGLKIKKVEIYP [K24T]
The “folding stability dG” value of the first is lower: 4.41 kcal/mol for the first, 4.57 kcal/mol for the second.

For KKKYVIKVYFEDTGKEVEIEAESLEEALEAAKRLAEELGLKIKKVEIYP [K24L], the “folding stability dG” value was 4.48 kcal/mol.
